26 sequences from the supplement of paper PMC9170038 can be followed below.

In series [1] the test system is MS2 coat protein. Briefly: apparent KD of MS2 coat protein; higher = weaker reporter binding. As to conditions: Eterna round: R101. As for the experimental part:
(§1)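 RNA-MaP: designed FMN/MS2 RNA switches (84 nt design region) are transcribed on-chip within common flanks and titrated with SNAP-549-labelled MS2 coat protein (about 1-3000 nM) in 100 mM Tris pH 7.5, 80 mM KCl, 4 mM MgCl2, without or with 200 uM FMN. Median apparent KD per design; activation ratio = KD,OFF / KD,ON.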

The test system of series [2] is MS2 coat protein. Briefly: apparent KD of MS2 coat protein; designed switch direction (-1 OFF switch, 1 ON switch): 1; higher = weaker reporter binding. As to conditions: Eterna round: R98. As for the experimental part:
as §1

Consider “AAAUAAAUUCAAGGAUAUGACUCCGAAACGGAGUCAGAAGGUGAGGAUCACCCACCUAUGAUCAGACCUCAGGAAACUGAGGUC [#SharedSequence ExNG1 - 39] (puzzle (switch architecture): Exclusion NG 1)”, for which the entries for the “apparent KD of MS2 coat protein” value in the series with MS2 coat protein [1] (input ligand: FMN 200 uM) and in the series on MS2 coat protein [1] (input ligand: none) were 6.56 nM and 6.19 nM, respectively.

Regarding “AAAUAAAUUGAAGGAUAUCAGGGUGCACCUCAGUAAAACUGAGGUGCACCCUGAGAAGGUCGAGGAUCACCCGAUCUAAAUAAA [#SharedSequence SLExNG1: 1-2] (puzzle (switch architecture): Small Loop Exclusion NG 1)”, the entries for the “apparent KD of MS2 coat protein” value with MS2 coat protein [1] (input ligand: FMN 200 uM) and with MS2 coat protein [1] (input ligand: none) were 12 nM and 8.76 nM, respectively.

“AAUAAACAAUAAAAGACUGGAGCAAACUUCUGAGGAUCACCCAGAAGGCGUCACCUAAUAGGUGACGAGGAUAUGGAGCUCCAG [#SharedSequence IExNG# - 2] (puzzle (switch architecture): Inverted Exclusion NG 3)”: the “apparent KD of MS2 coat protein” value in the series on MS2 coat protein [1] (input ligand: FMN 200 uM) came to 6.36 nM; in the series on MS2 coat protein [1] (input ligand: none), 5.76 nM.

For “AGACCUGCUCAGAAGGUGGGAACGAGGCUGGAAACAGCCUCGAAAUUAAAUCCUUGAGGAUCACCCAAGGAUAUGAGCAGGUCA [#SharedSequence - IExNG2: 12] (puzzle (switch architecture): Inverted Exclusion NG 2)”, the results for the “apparent KD of MS2 coat protein” value in the series with MS2 coat protein [1] (input ligand: FMN 200 uM) and in the series on MS2 coat protein [1] (input ligand: none) were 84.3 nM and 10.3 nM, respectively.

Consider “AGAGCUGCUCAGAAGGAGGAUCACCCUUUCGAAAGAAAUACGGAGGCUGAAAAGCCUCCGAAAUCUUAGGAUAUGAGCAGCUCA [#SharedSequence - IExNG2: 6] (puzzle (switch architecture): Inverted Exclusion NG 2)”, for which the “apparent KD of MS2 coat protein” value is 166 nM with MS2 coat protein [1] (input ligand: FMN 200 uM) and 153 nM with MS2 coat protein [1] (input ligand: none).

With “AGUUACAAACUCAACAUGAGGAUCACCCAUGUACUCUCAUGUAAGGAUAUACAUUCGUAUAGAAAGUAGAAGGUACUAAUUAUG [JR_SSNG3_Sub90]”, the “apparent KD of MS2 coat protein” value was determined as 485 nM with MS2 coat protein [2] (input ligand: FMN 200 uM) and 659 nM in the series with MS2 coat protein [2] (input ligand: none).

In the case of “AUGGGUUAAGGAGGAUAUAGAGGGAGGAGUAAACAUGAGGAUCACCCAUGUAUUUAAUUAGUUUACUAGAAGGCUUGUGAUUGU [1.8082e+07]”, the “apparent KD of MS2 coat protein” value with MS2 coat protein [2] (input ligand: FMN 200 uM) came out at 52.7 nM; with MS2 coat protein [2] (input ligand: none) it was 33.9 nM.

Take “AUGGUUGUCGUAGGAUAUGUAGGAUAUUCCUACAUGAGGAUCACCCAUGUUCGCAUGGAAGAAGGACAGAAGGACGAUGACCAA [salish99_SSNG2_008 #endbits investigation] (puzzle (switch architecture): Same State NG 2)”: the “apparent KD of MS2 coat protein” value amounted to 9.65 nM in the series with MS2 coat protein [1] (input ligand: FMN 200 uM) and 840 nM in the series on MS2 coat protein [1] (input ligand: none).

As for “AUUAACGGAGCUACAUGAGGAUCACCCAUGUACGGGUGAUCCUAGGAUAUGCCCGCAACUGUGUCGCAGAAGGAGGGUUGCCCA [Soterixe]”, the entries for the “apparent KD of MS2 coat protein” value in the series with MS2 coat protein [2] (input ligand: FMN 200 uM) and in the series on MS2 coat protein [2] (input ligand: none) were 37.6 nM and 25.6 nM, respectively.

“CACGUCCUCACAGGAUAUGCUGGACUUUGUCCAGCAGAAGGGUGACAUGAGGAUCACCCAUGUUAAAGGACGUGUAUAUUUAAU [Denovo 24]”: the “apparent KD of MS2 coat protein” value in the series with MS2 coat protein [2] (input ligand: FMN 200 uM) was 126 nM; in the series with MS2 coat protein [2] (input ligand: none), 652 nM.

Consider “CACUCCCGGUGAGGAUAUGCACAGGAUCACCGUGUAGAAGGCAUCAGGUAGAAGGUGCAGAGGAUCACCCUGUAAGGAUAUAUC [pwkr2 ssNG1 DX.12]”, for which the “apparent KD of MS2 coat protein” value is 94.5 nM in the series on MS2 coat protein [2] (input ligand: FMN 200 uM) and 300 nM in the series with MS2 coat protein [2] (input ligand: none).

Consider “CAGGCUGCCAGAGGAUAAUGGACAUGAGGAUCACCCAUGUGUCAGGAUAUGGGUUUCACAUGGACUCAGAAGGGACCAGCUCGA [Raraator]”, for which the “apparent KD of MS2 coat protein” value in the series with MS2 coat protein [2] (input ligand: FMN 200 uM) was 33.8 nM; in the series with MS2 coat protein [2] (input ligand: none) it was 131 nM.

“CGGAAUUGUACAGGAUAUGAGGGUGCCUGAGCCUCAGAAGGGUAGACCGACAUGAGGAUCACCCAUGUAUGCGGAUAACGUCCG [Sobela]”: the “apparent KD of MS2 coat protein” value with MS2 coat protein [2] (input ligand: FMN 200 uM) is 1660 nM; with MS2 coat protein [2] (input ligand: none) it was 224 nM.

On to “CGUUGUUCCGCAGGAUAUGUAUUGGAUUACAAUACAGAAGGGCGAUAACAUGAGGAUCACCCAUGUGUGGACAAUGAGGAAGAG [SameState #38 NG1]”, for which the results for the “apparent KD of MS2 coat protein” value in the series with MS2 coat protein [2] (input ligand: FMN 200 uM) and in the series with MS2 coat protein [2] (input ligand: none) were 54.9 nM and 789 nM, respectively.

Regarding “GCGCGCGGUUGAGGAUAUUUGCGUGCGGAUCGCCCGCGCACAUGAGGAUCACCCAUGUACGAGUAGGAGAAGGUGGCCCGUGUG [Same StateNG2]”, the “apparent KD of MS2 coat protein” value with MS2 coat protein [2] (input ligand: FMN 200 uM) turned out to be 178 nM; in the series with MS2 coat protein [2] (input ligand: none), 236 nM.

Take “GCUUGCGACGCAGGAUAUGGGUGCCUAAACACGAGGAUCACCCGUGUAAAGGAAGCGAAAAGCUCUCAGAAGGGCGUCGCAGGC [United States 7 - Jieux - Same State NG 2]”: the “apparent KD of MS2 coat protein” value in the series with MS2 coat protein [2] (input ligand: FMN 200 uM) was determined as 17.2 nM; with MS2 coat protein [2] (input ligand: none), 19.2 nM.

Consider “GGAGACCACACAGGAUAUGCUGGACUUUGUCCAGCAGAAGGGUGUUUAACAUGAGGAUCACCCAUGUAGGUCUCCAAAUUUAAU [Denovo 59]”, for which the results for the “apparent KD of MS2 coat protein” value in the series on MS2 coat protein [2] (input ligand: FMN 200 uM) and in the series with MS2 coat protein [2] (input ligand: none) were 17.7 nM and 60.5 nM, respectively.

On to “GGCGACGGUGUAGGAUAUGUGGGUUUCAAAGGGAUAGAAGGAUAGUUGGGAAUUAGGACAAGCAAACAUGAGGAUCACCCAUGU [Same STate NG 1]”, for which the “apparent KD of MS2 coat protein” value was found to be 34.8 nM in the series on MS2 coat protein [2] (input ligand: FMN 200 uM) and 44 nM in the series on MS2 coat protein [2] (input ligand: none).

For “GGCUAACGGGCUAACAUGAGGAUCACCCAUGUGGACUCAUGGUAGGAUAUGCUGUACUUUGUACAGCAGAAGGGCCGGUGAGCC [Mat - Same State NG 3 - JL Mod - D9]”, the “apparent KD of MS2 coat protein” value in the series with MS2 coat protein [2] (input ligand: FMN 200 uM) was determined as 283 nM; with MS2 coat protein [2] (input ligand: none), 726 nM.

Take “GUCCCAGUCACAGGAUAUGGCUCCGUAACGGAACCAGAAGGGUGAUAUUCAGAAAACACACAUGAGGAUCACCCAUGUAAUAAA [Tiorbiti]”: the “apparent KD of MS2 coat protein” value was 164 nM in the series with MS2 coat protein [2] (input ligand: FMN 200 uM) and 469 nM with MS2 coat protein [2] (input ligand: none).

As to “UAAUUAUGGUGAGGAUAUGCACAGGAUCACCGUGUAGAAGGCAUCAGGUAGAAGGUGCAGAGGAUCACCCUGUAAGGAUAUAUC [pwkr2 ssNG1 DX.18]”, the “apparent KD of MS2 coat protein” value came out at 102 nM in the series on MS2 coat protein [2] (input ligand: FMN 200 uM) and 722 nM in the series on MS2 coat protein [2] (input ligand: none).

“UCAACAAGGUGAGGAUAUGCACAGGAUCACCGUGUAGAAGGCAUCAGGUAGAAGGUGCAGAGGAUCACCCUGUAAGGAUAUACA [pwkr2 ssNG1 DX.9]”: the figures for the “apparent KD of MS2 coat protein” value with MS2 coat protein [2] (input ligand: FMN 200 uM) and with MS2 coat protein [2] (input ligand: none) were 526 nM and 1320 nM, respectively.

As to “UCACUCACGUUAGGAUAUGGAUCGGAAAACGAUCCAGAAGGAACCUGCAAACCUGAGGAUCACCCGGGUUCCAAUAACGAGUGA [SameSame 9 - Jieux - Same State NG 1]”, the entries for the “apparent KD of MS2 coat protein” value in the series with MS2 coat protein [2] (input ligand: FMN 200 uM) and with MS2 coat protein [2] (input ligand: none) were 458 nM and 778 nM, respectively.

In the case of “UCCGCUAUCGCAGGAUAUUACAUGGGAAAGAGUACAUGAGGAUCACCCAUGUAAAAGAUCAUAAAUAAGAAGGGCGAUAGCGGA [Lame State 9 - Jieux - Same State NG 2]”, the results for the “apparent KD of MS2 coat protein” value in the series with MS2 coat protein [2] (input ligand: FMN 200 uM) and in the series with MS2 coat protein [2] (input ligand: none) were 214 nM and 18.8 nM, respectively.

As for “UGGAUCAAUACAGGAUAUGGUGACGCACAUGAGGAUCACCCAUGUCCGCAGCGUGCUAAGCACGCCCAGAAGGGUAUUGACUUG [Enxe]”, the figures for the “apparent KD of MS2 coat protein” value with MS2 coat protein [2] (input ligand: FMN 200 uM) and in the series with MS2 coat protein [2] (input ligand: none) were 106 nM and 858 nM, respectively.

For “UGGGAAUGAACAUGAGGAUCACCCAUGUCCCGGAAACGGAAUGAGGAUAUCCAUAGCAAAGCUAUGGAGAAGGCAUGGGUCCCA [SaneState 20 - Jieux - Same State NG 2]”, the “apparent KD of MS2 coat protein” value was determined as 475 nM in the series with MS2 coat protein [2] (input ligand: FMN 200 uM) and 756 nM with MS2 coat protein [2] (input ligand: none).
